Test results published in publication doi:10.1101/2021.05.01.442081.

Biological target: T1, GST-FOXD3 (Mus musculus, UniProt Q61060 1-465)
T1 sequence: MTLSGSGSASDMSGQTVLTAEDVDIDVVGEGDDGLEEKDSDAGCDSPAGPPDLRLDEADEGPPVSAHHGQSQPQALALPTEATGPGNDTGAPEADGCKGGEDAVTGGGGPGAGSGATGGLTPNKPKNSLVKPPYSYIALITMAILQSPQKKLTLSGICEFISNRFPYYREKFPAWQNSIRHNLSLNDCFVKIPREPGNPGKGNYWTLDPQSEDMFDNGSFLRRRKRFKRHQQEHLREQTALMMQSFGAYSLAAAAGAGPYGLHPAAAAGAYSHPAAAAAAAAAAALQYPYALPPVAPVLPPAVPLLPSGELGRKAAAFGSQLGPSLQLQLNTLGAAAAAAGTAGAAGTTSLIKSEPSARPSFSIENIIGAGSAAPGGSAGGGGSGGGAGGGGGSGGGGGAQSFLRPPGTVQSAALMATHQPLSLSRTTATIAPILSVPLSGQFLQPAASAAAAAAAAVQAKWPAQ
Assay: EMSA

B1: MERVL-LTR (dsDNA)
DNA 1: AGACTCAAAGCAAAACAGGCTCCTAGAGGGGAGGT
DNA 2: ACCTCCCCTCTAGGAGCCTGTTTTGCTTTGAGTCT
  binding result: binds
